Experimental data from US20230192903A1 (published 2023).

B1: bispecific antibody SY1 (bispecific antibody, human IgG1, kappa)
light: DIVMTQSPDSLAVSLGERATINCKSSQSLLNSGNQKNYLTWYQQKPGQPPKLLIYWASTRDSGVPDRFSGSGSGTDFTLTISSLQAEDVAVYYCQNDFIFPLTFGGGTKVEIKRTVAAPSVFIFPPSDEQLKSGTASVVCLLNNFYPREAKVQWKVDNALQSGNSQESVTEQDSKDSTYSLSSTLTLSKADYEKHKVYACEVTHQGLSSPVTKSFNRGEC
heavy: QVQLQESGPGLVKPSETLSLTCTVSGFSLTRYGVSWIRQPPGKGLEWIGVIWGEGNTNYNPSLKSRVTISKDSSKSQVSLKLSSVTAADTAVYYCARVNFGNALDYWGQGTLVTVSSASTKGPSVFPLAPSSKSTSGGTAALGCLVKDYFPEPVTVSWNSGALTSGVHTFPAVLQSSGLYSLSSVVTVPSSSLGTQTYICNVNHKPSNTKVDKKVEPKSCDKTHTCPPCPAPPVAGPSVFLFPPKPKDTLMISRTPEVTCVVVDVSHEAPEVQFNWYVDGVEVHNAKTKPREEQFNSTFRVVSVLTVVHQDWLNGKEYKCKVSNKGLPAPIEKTISKTKGQPREPQVYTLPPCRDELTKNQVSLWCLVKGFYPSDIAVEWESNGQPENNYKTTPPVLDSDGSFFLYSKLTVDKSRWQQGNVFSCSVMHEALHNHYTQKSLSLSPGK
chain: EVQLVESGGGLVQPGKSLKLSCEASGFTFSGYGMHWVRQAPGRGLESVAYITSSSINIKYADAVKGRFTVSRDNAKNLLFLQMNILKSEDTAMYYCARFDWDKNYWGQGTMVTVSSGGGGSGGGGSGGGGSDIQMTQSPSSLPASLGDRVTINCQASQDISNYLNWYQQKPGKAPKLLIYYTNKLADGVPSRFSGSGSGRDSSFTISSLESEDIGSYYCQQYYNYPWTFGPGTKLEIKGRGRGSDKTHTCPPCPAPPVAGPSVFLFPPKPKDTLMISRTPEVTCVVVDVSHEAPEVQFNWYVDGVEVHNAKTKPREEQFNSTFRVVSVLTVVHQDWLNGKEYKCKVSNKGLPAPIEKTISKTKGQPREPQVCTLPPSRDELTKNQVSLSCAVKGFYPSDIAVEWESNGQPENNYKTTPPVLDSDGSFFLVSKLTVDKSRWQQGNVFSCSVMHEALHNHYTQKSLSLSPGK
notes: YBODY structure: anti-CLDN18.2 Fab arm (2C6.9) and single chain anti-mouse CD3 scFv (2C11)-Fc
B2: Bispecific antibody molecule YCS4 (bispecific antibody, human IgG1, kappa)
light 1: not shown
light 2: not shown
heavy 1: QVQLQESGPGLVKPSETLSLTCTVSGFSLTRYGVSWIRQPPGKGLEWIGVIWGEGNTNYNPSLKSRVTISKDSSKSQVSLKLSSVTAADTAVYYCARVNFGNALDYWGQGTLVTVSSASTKGPSVFPLAPSSKSTSGGTAALGCLVKDYFPEPVTVSWNSGALTSGVHTFPAVLQSSGLYSLSSVVTVPSSSLGTQTYICNVNHKPSNTKVDKKVEPKSCDKTHTCPPCPAPPVAGPSVFLFPPKPKDTLMISRTPEVTCVVVDVSHEAPEVQFNWYVDGVEVHNAKTKPREEQFNSTFRVVSVLTVVHQDWLNGKEYKCKVSNKGLPAPIEKTISKTKGQPREPQVYTLPPCRDELTKNQVSLWCLVKGFYPSDIAVEWESNGQPENNYKTTPPVLDSDGSFFLYSKLTVDKSRWQQGNVFSCSVMHEALHNHYTQKSLSLSPGK
heavy 2: EVQLVESGGGLVKPGGSLRLSCAASGFSFSNSAMSWVRQAPGKGLEWVSTISSGDSYTYYADSVKGRFTISRDNAKNSLYLQMNSLRAEDTAVYYCARQGYGNALDYWGQGTLVTVSSASTKGPSVFPLAPSSKSTSGGTAALGCLVKDYFPEPVTVSWNSGALTSGVHTFPAVLQSSGLYSLSSVVTVPSSSLGTQTYICNVNHKPSNTKVDKKVEPKSCDKTHTAPAPAPAPAPAPAPAPQVQLVESGGGVVQPGRSLRLSCAASGFTFSTYAMNWVRQAPGKGLEWVARIRSKYNNYATYYADSVKDRFTISRDDSKNTLYLQMNSLRAEDTAVYYCARHGNFGNSYVSWFAYWGQGTLVTVSSGGGGSGGGGSGGGGSQTVVTQEPSLTVSPGGTVTLTCRSSTGAVTTSNYANWVQQKPGQAPRGLIGGTNKRAPGVPARFSGSLLGGKAALTLSGVQPEDEAEYYCALWYSNLWVFGGGTKVEIKGGGGSDKTHTCPPCPAPPVAGPSVFLFPPKPKDTLMISRTPEVTCVVVDVSHEAPEVQFNWYVDGVEVHNAKTKPREEQFNSTFRVVSVLTVVHQDWLNGKEYKCKVSNKGLPAPIEKTISKTKGQPREPQVCTLPPSRDELTKNQVSLSCAVKGFYPSDIAVEWESNGQPENNYKTTPPVLDSDGSFFLVSKLTVDKSRWQQGNVFSCSVMHEALHNHYTQKSLSLSPGK
notes: CS4 with the first heavy/light chain variable regions replaced by 1E9.2; order of chains: first light, second light, second heavy, first heavy
B3: bispecific antibody SCS1 (bispecific antibody, human IgG1, kappa)
light: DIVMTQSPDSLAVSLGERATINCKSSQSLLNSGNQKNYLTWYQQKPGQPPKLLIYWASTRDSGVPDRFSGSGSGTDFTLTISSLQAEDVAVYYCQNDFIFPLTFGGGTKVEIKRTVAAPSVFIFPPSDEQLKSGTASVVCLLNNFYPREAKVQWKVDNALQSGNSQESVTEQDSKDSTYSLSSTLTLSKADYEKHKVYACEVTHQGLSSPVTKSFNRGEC
heavy 1: QVQLQESGPGLVKPSETLSLTCTVSGFSLTRYGVSWIRQPPGKGLEWIGVIWGEGNTNYNPSLKSRVTISKDSSKSQVSLKLSSVTAADTAVYYCARVNFGNALDYWGQGTLVTVSSASTKGPSVFPLAPSSKSTSGGTAALGCLVKDYFPEPVTVSWNSGALTSGVHTFPAVLQSSGLYSLSSVVTVPSSSLGTQTYICNVNHKPSNTKVDKKVEPKSCDKTHTCPPCPAPPVAGPSVFLFPPKPKDTLMISRTPEVTCVVVDVSHEAPEVQFNWYVDGVEVHNAKTKPREEQFNSTFRVVSVLTVVHQDWLNGKEYKCKVSNKGLPAPIEKTISKTKGQPREPQVYTLPPCRDELTKNQVSLWCLVKGFYPSDIAVEWESNGQPENNYKTTPPVLDSDGSFFLYSKLTVDKSRWQQGNVFSCSVMHEALHNHYTQKSLSLSPGK
heavy 2: QVQLQESGPGLVKPSETLSLTCTVSGFSLTRYGVSWIRQPPGKGLEWIGVIWGEGNTNYNPSLKSRVTISKDSSKSQVSLKLSSVTAADTAVYYCARVNFGNALDYWGQGTLVTVSSASTKGPSVFPLAPSSKSTSGGTAALGCLVKDYFPEPVTVSWNSGALTSGVHTFPAVLQSSGLYSLSSVVTVPSSSLGTQTYICNVNHKPSNTKVDKKVEPKSCDKTHTAPAPAPAPAPAPAPAPEVQLVESGGGLVQPGKSLKLSCEASGFTFSGYGMHWVRQAPGRGLESVAYITSSSINIKYADAVKGRFTVSRDNAKNLLFLQMNILKSEDTAMYYCARFDWDKNYWGQGTMVTVSSGGGGSGGGGSGGGGSDIQMTQSPSSLPASLGDRVTINCQASQDISNYLNWYQQKPGKAPKLLIYYTNKLADGVPSRFSGSGSGRDSSFTISSLESEDIGSYYCQQYYNYPWTFGPGTKLEIKGGGGSDKTHTCPPCPAPPVAGPSVFLFPPKPKDTLMISRTPEVTCVVVDVSHEAPEVQFNWYVDGVEVHNAKTKPREEQFNSTFRVVSVLTVVHQDWLNGKEYKCKVSNKGLPAPIEKTISKTKGQPREPQVCTLPPSRDELTKNQVSLSCAVKGFYPSDIAVEWESNGQPENNYKTTPPVLDSDGSFFLVSKLTVDKSRWQQGNVFSCSVMHEALHNHYTQKSLSLSPGK
notes: CSBODY structure: two 2C6.9 Fab arms; second heavy chain (first heavy entry) and first heavy chain with anti-mouse CD3 scFv (2C11) between CH1 and Fc2; also called SCSI

How the values were obtained:
murine CD3 antigen = molecular target: T1, murine CD3 antigen (murine, UniProt P22646 22-108, limits assumed); experiment: SPR (Biacore T200), murine CD3 antigen on CM5 chip, 1:1 fit
T1 construct: also called Mouse CD3ϵ
Description: After the detection was completed, data fitting was carried out on the result pattern by adopting Biacore T200 Evaluation Software in a 1:1 binding fitting mode to obtain an equilibrium dissociation constant (KD).

Human CLDN18.2 [1] = molecular target: T2, Human CLDN18.2 (human); experiment: flow cytometry, NUGC4-hCLDN18.2 cells
T2 construct: the cell line is named under assay; also called hCLDN18.2; human CLDN18.2 antigen
Description: (§1) NUGC4 and NUGC4-hCLDN18.2 cells were cultured, digested with pancreatin and centrifuged to collect cells. The cells were collected and resuspended in buffer (PBS+1% FBS) at 1×10⁴ cells/well in a 96-well plate at 100 μL per well. Then the mixture was centrifuged at 350×g for 5 min, and the supernatant was removed.

Human CLDN18.2 [2] = molecular target: T2, Human CLDN18.2; experiment: flow cytometry, NUGC4 cells (endogenous CLDN18.2)
Description: as §1

human CD3 antigen = molecular target: T3, human CD3 antigen (human, UniProt P07766 23-126); experiment: detection method the same as in Examples 2-8 (Biacore)
T3 construct: also called Human CD3ϵ

T1 sequence (P22646 22-108 limits assumed): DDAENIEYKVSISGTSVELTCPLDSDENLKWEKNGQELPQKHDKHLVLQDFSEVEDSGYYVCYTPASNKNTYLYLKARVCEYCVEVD

Row | Binder | Kd (murine CD3 antigen) | EC50 (Human CLDN18.2 [1]) | EC50 (Human CLDN18.2 [2]) | binding result (human CD3 antigen)
1 | B1 | 79.3 nM | 125 nM | 304 nM | 
2 | B2 |  |  |  | binds
3 | B3 | 94.1 nM | 25.4 nM | 29.1 nM | 
